Earlier results, collected in article PMC6668730.
Read-outs that look alike come from different tables or passages of the source.

Legend:
[1] = target: Histone H3 (Homo sapiens) (UniProt P68431)
[2] = target: Histone H3 (Drosophila melanogaster) (UniProt P02299)
[3] = target: Histone H3 (Drosophila melanogaster) (UniProt P02299); remark: listed apart in the source
[4] = target: Histone H3 (Homo sapiens) (UniProt P68431); remark: listed apart in the source
[5] = target: Histone H3 (Homo sapiens) (UniProt P68431); remark: listed apart in the source

Sequence of GLP1 ankyrin repeats (Q9H9B1 737-1004): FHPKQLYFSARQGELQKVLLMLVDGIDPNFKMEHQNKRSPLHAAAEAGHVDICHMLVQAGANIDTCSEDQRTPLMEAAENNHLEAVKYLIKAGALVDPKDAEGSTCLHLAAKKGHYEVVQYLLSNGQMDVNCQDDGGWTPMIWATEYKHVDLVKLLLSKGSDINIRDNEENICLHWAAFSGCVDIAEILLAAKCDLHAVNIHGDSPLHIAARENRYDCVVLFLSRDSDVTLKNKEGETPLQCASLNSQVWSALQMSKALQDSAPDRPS
Sequence of G9a ankyrin repeats (Q96KQ7 649-879): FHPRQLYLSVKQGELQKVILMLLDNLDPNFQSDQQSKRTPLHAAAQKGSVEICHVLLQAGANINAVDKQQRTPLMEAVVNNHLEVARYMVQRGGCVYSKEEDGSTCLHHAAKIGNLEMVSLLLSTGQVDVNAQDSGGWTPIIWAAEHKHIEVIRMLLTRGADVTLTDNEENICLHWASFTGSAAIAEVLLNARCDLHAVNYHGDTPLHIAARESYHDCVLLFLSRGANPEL

GLP1 ankyrin repeats (from UniProt Q9H9B1)
Kd [1]: 5 µM
Kd [2]: 7 µM

G9a ankyrin repeats (from UniProt Q96KQ7)
Kd [3]: 6 µM

BPTF PHD finger (from UniProt Q12830)
Kd [4]: 5 µM
Kd [5]: 2.7 µM
